Article PMC11045745, “NMR characterization of RNA binding property of the DEAD-box RNA helicase DDX3X and its implications for helicase activity”

Biological target: DDX3X core WT (Homo sapiens, UniProt O00571 132-607)
Test: NMR (13C-1H HMQC); AMPPNP; apparent affinity lower than E348Q with ATP; EMSA: 20 mM HEPES-NaOH pH 7.4, 100 mM NaCl, 5 mM DTT, 10% glycerol, 5 mM ATP/MgCl2 or ADP/EDTA, 100 nM RNA; NMR: 35 C (30 C for UA-12mer), 40-50 uM protein (HMQC) or 100 uM RNA (19F), 5 mM ATP/MgCl2; NMR buffer not given in the material
Details: protein: recombinant; tags: His6-SUMO removed (Ulp1); two-Gly linker

DDX3X core WT, sequence (O00571 132-607): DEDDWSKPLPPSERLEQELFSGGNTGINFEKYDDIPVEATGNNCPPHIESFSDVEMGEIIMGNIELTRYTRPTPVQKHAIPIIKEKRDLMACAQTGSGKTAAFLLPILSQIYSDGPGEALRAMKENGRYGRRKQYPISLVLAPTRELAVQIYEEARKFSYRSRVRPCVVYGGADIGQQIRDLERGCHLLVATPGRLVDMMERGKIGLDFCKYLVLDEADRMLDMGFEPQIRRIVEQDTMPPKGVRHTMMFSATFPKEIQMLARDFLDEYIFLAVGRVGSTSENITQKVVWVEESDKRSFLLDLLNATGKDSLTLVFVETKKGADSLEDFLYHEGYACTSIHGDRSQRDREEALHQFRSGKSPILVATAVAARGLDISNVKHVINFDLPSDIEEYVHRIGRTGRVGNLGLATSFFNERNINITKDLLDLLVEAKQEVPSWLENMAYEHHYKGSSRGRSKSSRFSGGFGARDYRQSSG

## UUUUUUUUUU (ssRNA) [poly-U10]
  binding result: binds
